# In patent US20210063414A1, “METHODS FOR PREVENTING AND/OR TREATING BONE LOSS CONDITIONS BY MODULATING IRISIN” (Dana-Farber Cancer Institute, Inc., priority 2018, published 2021):
# Experiments:
# Experiment in all cases: Crosslinking/co-immunoprecipitation/mass spectrometry (TMT quantitative proteomics) to identify irisin receptors
# Type in all cases: binding
# [1] = target: T1, MLO-Y4 cell surface proteins (Mus musculus, UniProt Q9DCW4); conditions: co-precipitated protein Etfb (ETFB_MOUSE)
# T1 construct: endogenous in cells; host or cells: MLO-Y4
# T1 sequence (Q9DCW4 1-255): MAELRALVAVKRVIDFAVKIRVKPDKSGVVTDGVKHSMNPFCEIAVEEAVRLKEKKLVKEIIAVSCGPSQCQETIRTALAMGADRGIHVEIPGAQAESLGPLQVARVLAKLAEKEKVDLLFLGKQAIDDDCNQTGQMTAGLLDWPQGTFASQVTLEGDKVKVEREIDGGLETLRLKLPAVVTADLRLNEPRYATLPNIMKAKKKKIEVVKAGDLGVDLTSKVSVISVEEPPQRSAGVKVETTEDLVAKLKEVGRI
# In short: (§1)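 Mouse MLO-Y4 cells were switched to serum-free FreeStyle medium for 4 h, chilled, then exposed to 10 nM His-tagged irisin (or adipsin as control) for 20 min. Cells were crosslinked with 1.5 mM DTSSP (30 min, ice), and bound proteins were pulled down on Ni-NTA and eluted with 250 mM imidazole. Eluates were separated by SDS-PAGE, trypsin-digested in gel, TMT 6-plex labelled and quantified by MS3-based LC-MS/MS on an Orbitrap Fusion Lumos.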
# [2] = target: T2, MLO-Y4 cell surface proteins (Mus musculus, UniProt Q6ZQ93); conditions: co-precipitated protein Usp34 (UBP34_MOUSE)
# T2 construct: endogenous in cells; host or cells: MLO-Y4
# In short: as §1
# [3] = target: T3, MLO-Y4 cell surface proteins (Mus musculus, UniProt E9Q557); conditions: co-precipitated protein Dsp (DESP_MOUSE)
# T3 construct: endogenous in cells; host or cells: MLO-Y4
# In short: as §1
# [4] = target: T4, MLO-Y4 cell surface proteins (Mus musculus, UniProt Q8JZN5); conditions: co-precipitated protein Acad9 (ACAD9_MOUSE)
# T4 construct: endogenous in cells; host or cells: MLO-Y4
# T4 sequence (Q8JZN5 42-625): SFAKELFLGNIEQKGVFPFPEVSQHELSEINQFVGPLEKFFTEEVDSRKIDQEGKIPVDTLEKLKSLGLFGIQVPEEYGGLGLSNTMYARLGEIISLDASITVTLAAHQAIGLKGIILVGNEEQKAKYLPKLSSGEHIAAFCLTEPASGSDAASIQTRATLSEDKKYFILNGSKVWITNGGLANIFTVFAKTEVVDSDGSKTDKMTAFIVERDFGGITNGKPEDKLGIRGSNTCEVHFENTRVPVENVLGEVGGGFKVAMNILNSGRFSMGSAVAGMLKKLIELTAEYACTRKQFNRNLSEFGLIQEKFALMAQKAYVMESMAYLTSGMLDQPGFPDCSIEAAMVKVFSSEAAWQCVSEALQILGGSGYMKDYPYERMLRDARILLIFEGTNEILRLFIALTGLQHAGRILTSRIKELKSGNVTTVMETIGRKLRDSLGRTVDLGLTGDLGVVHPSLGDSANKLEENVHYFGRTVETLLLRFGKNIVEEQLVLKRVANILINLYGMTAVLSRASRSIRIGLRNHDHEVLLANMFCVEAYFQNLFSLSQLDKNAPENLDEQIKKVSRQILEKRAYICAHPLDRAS
# In short: as §1
# T3 sequence (E9Q557 whole entry): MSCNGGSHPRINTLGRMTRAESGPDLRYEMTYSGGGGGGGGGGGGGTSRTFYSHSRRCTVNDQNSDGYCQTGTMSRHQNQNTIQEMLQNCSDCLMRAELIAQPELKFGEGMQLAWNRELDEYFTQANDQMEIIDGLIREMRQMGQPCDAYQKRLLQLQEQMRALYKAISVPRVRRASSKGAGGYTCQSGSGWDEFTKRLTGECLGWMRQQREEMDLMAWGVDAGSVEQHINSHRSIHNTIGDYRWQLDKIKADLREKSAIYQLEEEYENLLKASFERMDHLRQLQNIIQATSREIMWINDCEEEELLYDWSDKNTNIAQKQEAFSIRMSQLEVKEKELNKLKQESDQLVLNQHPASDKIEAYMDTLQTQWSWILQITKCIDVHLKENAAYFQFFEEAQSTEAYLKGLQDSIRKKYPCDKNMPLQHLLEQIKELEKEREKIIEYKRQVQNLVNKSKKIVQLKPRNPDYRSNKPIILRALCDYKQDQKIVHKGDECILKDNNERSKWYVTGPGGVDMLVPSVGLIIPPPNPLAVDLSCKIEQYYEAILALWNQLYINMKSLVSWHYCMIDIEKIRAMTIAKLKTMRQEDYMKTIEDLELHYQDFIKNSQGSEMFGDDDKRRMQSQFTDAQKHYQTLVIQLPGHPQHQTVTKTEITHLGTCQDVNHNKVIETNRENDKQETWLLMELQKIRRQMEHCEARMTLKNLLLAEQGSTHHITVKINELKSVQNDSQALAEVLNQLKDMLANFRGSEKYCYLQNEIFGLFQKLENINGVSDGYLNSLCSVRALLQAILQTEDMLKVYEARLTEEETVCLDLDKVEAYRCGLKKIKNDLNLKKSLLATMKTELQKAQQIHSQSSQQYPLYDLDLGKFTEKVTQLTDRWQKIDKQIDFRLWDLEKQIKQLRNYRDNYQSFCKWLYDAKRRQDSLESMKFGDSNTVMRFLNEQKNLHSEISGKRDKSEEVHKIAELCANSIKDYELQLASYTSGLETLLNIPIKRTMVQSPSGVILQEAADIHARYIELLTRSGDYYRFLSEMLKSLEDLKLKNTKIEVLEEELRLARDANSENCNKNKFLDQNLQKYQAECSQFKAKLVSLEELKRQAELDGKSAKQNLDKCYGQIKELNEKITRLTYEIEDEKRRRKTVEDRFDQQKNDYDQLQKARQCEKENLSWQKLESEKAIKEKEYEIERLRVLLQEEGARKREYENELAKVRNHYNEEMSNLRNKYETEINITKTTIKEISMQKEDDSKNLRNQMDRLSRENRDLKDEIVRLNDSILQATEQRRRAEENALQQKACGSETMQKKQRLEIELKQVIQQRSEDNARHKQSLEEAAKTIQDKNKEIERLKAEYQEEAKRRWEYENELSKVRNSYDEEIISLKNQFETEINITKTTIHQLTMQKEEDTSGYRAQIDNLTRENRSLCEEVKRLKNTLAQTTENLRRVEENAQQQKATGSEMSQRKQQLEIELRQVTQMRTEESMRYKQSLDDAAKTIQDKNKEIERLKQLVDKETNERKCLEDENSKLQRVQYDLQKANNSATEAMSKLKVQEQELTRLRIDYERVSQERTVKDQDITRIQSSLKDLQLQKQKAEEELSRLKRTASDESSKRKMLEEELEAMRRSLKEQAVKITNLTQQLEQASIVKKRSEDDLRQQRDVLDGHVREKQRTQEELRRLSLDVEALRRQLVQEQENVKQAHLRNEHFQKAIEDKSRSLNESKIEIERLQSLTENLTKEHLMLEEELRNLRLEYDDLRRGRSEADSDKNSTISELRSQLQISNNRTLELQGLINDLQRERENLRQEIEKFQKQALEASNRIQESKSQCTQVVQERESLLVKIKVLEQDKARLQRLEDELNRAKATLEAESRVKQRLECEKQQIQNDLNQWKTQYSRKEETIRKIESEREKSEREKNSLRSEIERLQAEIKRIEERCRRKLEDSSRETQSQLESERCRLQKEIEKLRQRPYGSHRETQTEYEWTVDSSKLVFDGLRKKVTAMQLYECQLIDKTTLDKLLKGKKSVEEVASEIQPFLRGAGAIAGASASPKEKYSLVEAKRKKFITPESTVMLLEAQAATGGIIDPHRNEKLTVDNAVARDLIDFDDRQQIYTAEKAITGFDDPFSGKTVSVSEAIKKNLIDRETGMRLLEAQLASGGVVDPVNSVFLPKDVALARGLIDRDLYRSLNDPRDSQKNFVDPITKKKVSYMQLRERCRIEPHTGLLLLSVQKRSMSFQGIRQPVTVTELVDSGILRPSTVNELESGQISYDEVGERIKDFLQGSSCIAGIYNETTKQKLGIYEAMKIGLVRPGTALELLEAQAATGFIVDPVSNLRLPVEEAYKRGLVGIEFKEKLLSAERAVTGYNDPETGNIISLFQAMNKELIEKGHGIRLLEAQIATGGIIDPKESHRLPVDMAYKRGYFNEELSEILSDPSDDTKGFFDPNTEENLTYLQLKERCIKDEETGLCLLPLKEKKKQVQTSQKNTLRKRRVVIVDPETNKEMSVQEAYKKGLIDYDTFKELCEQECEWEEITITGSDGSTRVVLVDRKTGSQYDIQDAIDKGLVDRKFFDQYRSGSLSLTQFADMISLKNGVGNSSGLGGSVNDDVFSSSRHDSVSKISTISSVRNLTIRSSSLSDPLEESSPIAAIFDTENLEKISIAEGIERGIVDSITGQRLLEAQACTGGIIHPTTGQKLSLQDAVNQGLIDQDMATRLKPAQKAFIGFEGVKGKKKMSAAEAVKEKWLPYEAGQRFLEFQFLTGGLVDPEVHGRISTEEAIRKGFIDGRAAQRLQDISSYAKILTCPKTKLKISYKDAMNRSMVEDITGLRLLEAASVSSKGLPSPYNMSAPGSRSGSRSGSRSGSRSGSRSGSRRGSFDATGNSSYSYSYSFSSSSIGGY
substance,measurement,setting,value
adipsin,TMT signal-to-noise ratio,[1],730.275
same,TMT signal-to-noise ratio,[2],1044.49
same,TMT signal-to-noise ratio,[3],79.7679
same,TMT signal-to-noise ratio,[4],127.125
